{"source": "patent US20200048350A1", "about": "(INHIBRX BIOSCIENCES, published 2020)", "binders": {"B1": {"name": "DART-Fc B7H3xCD3 (bispecific antibody)", "chain 1": "DIQLTQSPSFLSASVGDRVTITCKASQNVDTNVAWYQQKPGKAPKALIYSASYRYSGVPSRFSGSGSGTDFTLTISSLQPEDFATYYCQQYNNYPFTFGQGTKLEIKGGGSGGGGEVQLVESGGGLVQPGGSLRLSCAASGFTFSTYAMNWVRQAPGKGLEWVGRIRSKYNNYATYYADSVKDRFTISRDDSKNSLYLQMNSLKTEDTAVYYCVRHGNFGNSYVSWFAYWGQGTLVTVSSGGCGGGEVAALEKEVAALEKEVAALEKEVAALEKGGGDKTHTCPPCPAPEAAGGPSVFLFPPKPKDTLMISRTPEVTCVVVDVSHEDPEVKFNWYVDGVEVHNAKTKPREEQYNSTYRVVSVLTVLHQDWLNGKEYKCKVSNKALPAPIEKTISKAKGQPREPQVYTLPPSREEMTKNQVSLWCLVKGFYPSDIAVEWESNGQPENNYKTTPPVLDSDGSFFLYSKLTVDKSRWQQGNVFSCSVMHEALHNHYTQKSLSLSPGK", "chain 2": "QAVVTQEPSLTVSPGGTVTLTCRSSTGAVTTSNYANWVQQKPGQAPRGLIGGTNKRAPWTPARFSGSLLGGKAALTITGAQAEDEADYYCALWYSNLWVFGGGTKLTVLGGGGSGGGGEVQLVESGGGLVQPGGSLRLSCAASGFTFSSFGMHWVRQAPGKGLEWVAYISSDSSAIYYADTVKGRFTISRDNAKNSLYLQMNSLRDEDTAVYYCGRGRENIYYGSRLDYWGQGTTVTVSSGGCGGGKVAALKEKVAALKEKVAALKEKVAALKE", "chain 3": "not shown", "notes": "Comparator; also called DART-Fc format B7H3xCD3; B7-H3 x CD3 Bispecific DART-A Diabody"}}, "biological_target": "T1, B7H3 (UniProt Q5ZPR3 29-534, limits assumed)", "T1 construct": "whole, on cells; also called CD276", "T1 sequence (looked up)": "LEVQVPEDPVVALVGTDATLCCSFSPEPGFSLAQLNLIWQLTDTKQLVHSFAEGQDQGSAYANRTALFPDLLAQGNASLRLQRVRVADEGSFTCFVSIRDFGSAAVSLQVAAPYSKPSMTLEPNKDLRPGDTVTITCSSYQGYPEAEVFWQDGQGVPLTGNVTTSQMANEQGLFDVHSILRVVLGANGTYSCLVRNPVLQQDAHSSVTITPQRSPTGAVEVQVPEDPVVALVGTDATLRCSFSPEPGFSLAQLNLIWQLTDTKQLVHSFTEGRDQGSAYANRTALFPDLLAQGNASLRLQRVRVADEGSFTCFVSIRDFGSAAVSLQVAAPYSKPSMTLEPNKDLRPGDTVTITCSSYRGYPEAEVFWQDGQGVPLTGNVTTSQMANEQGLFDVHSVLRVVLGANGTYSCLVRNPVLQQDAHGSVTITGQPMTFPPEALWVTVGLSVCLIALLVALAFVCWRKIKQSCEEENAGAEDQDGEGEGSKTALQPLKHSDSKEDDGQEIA", "experiment": "flow cytometry on A375 cells"}
{"binder": "B1", "values": [{"measurement": "binding result", "value": "binds"}]}
